The text below walks through data of patent publication US20050003347A1, “Domain-exchanged binding molecules, methods of use and methods of production” (priority 2003, published 2005).

The subject of one experiment is Mab 2G12 binding to gp120JR-FL. Nature of the experiment: Competition ELISA: inhibition of 2G12 binding to gp120JR-FL by carbohydrates. The settings on record: 2G12 1 μg/ml. The arrangement: species or system HIV-1. As to the method:
Competition enzyme-linked immunosorbent assays (ELISAs) were performed to determine the relative inhibition constants of different carbohydrates on 2G12. GP120JR-FL was first captured onto microtiter plate wells (flat bottom, Costar type 3690; Corning Inc.). Subsequently serial dilutions of Man9GlcNAc2, Manα1-2Man, mannose, and other mono- and disaccharides were added to the wells in the presence of 2G12 (1 μg/ml). Subsequent blocking, washing, and detection steps were performed as described in (13).
(In an ELISA, binding on a coated surface is turned into a signal by an enzyme label.)
`O=C(CO)[C@@H](O)[C@H](O)[C@H](O)CO` [Fructose]: the “inhibition of 2G12 binding to gp120 (in words)” value is on record as “better inhibitor than mannose”.

The same experiment, now with this note: relative to Manα1-2Man; 2G12 1 μg/ml.
Turning to `CC(=O)N[C@H]1[C@H](O[C@H]2[C@H](O)[C@@H](NC(C)=O)C(O)O[C@@H]2CO)O[C@H](CO)[C@@H](O[C@@H]2O[C@H](CO[C@H]3O[C@H](CO[C@H]4O[C@H](CO)[C@@H](O)[C@H](O)[C@@H]4O[C@H]4O[C@H](CO)[C@@H](O)[C@H](O)[C@@H]4O)[C@@H](O)[C@H](O[C@H]4O[C@H](CO)[C@@H](O)[C@H](O)[C@@H]4O[C@H]4O[C@H](CO)[C@@H](O)[C@H](O)[C@@H]4O)[C@@H]3O)[C@@H](O)[C@H](O[C@H]3O[C@H](CO)[C@@H](O)[C@H](O)[C@@H]3O[C@H]3O[C@H](CO)[C@@H](O)[C@H](O)[C@@H]3O[C@H]3O[C@H](CO)[C@@H](O)[C@H](O)[C@@H]3O)[C@@H]2O)[C@@H]1O` (stereo partly drawn) [Man9GlcNAc2], the “inhibition of Mab 2G12 binding to gp120JR-FL compared to the disaccharide Manα1-2Man” value is listed as “over 50 fold”.

Still in this experiment, the particulars now being: relative to mannose; 2G12 1 μg/ml.
For the compound `CC(=O)N[C@H]1[C@H](O[C@H]2[C@H](O)[C@@H](NC(C)=O)C(O)O[C@@H]2CO)O[C@H](CO)[C@@H](O[C@@H]2O[C@H](CO[C@H]3O[C@H](CO[C@H]4O[C@H](CO)[C@@H](O)[C@H](O)[C@@H]4O[C@H]4O[C@H](CO)[C@@H](O)[C@H](O)[C@@H]4O)[C@@H](O)[C@H](O[C@H]4O[C@H](CO)[C@@H](O)[C@H](O)[C@@H]4O[C@H]4O[C@H](CO)[C@@H](O)[C@H](O)[C@@H]4O)[C@@H]3O)[C@@H](O)[C@H](O[C@H]3O[C@H](CO)[C@@H](O)[C@H](O)[C@@H]3O[C@H]3O[C@H](CO)[C@@H](O)[C@H](O)[C@@H]3O[C@H]3O[C@H](CO)[C@@H](O)[C@H](O)[C@@H]3O)[C@@H]2O)[C@@H]1O` (stereo partly drawn) [Man9GlcNAc2], the “inhibition of Mab 2G12 binding to gp120JR-FL compared to mannose (relative IC50)” value is given as “over 200 fold”.

The target in a further experiment is HIV-1 gp120 JR-FL (HIV-1 (JR-FL)). Nature of the experiment: ELISA, crude Fab on gp120JR-FL; apparent affinity wt/mutant x100%.
Details: not given
Turning to Fab 2G12 mutant H D100bA, the % Affinity Relative to Wild Type amounted to 52%.

On to Fab 2G12 mutant H D100dA, for which the % Affinity Relative to Wild Type worked out at 120%.

In the case of Fab 2G12 mutant H E75A, the % Affinity Relative to Wild Type came to 1.1%.

Regarding Fab 2G12 mutant H E76A, the % Affinity Relative to Wild Type was determined as 103%.

In the case of Fab 2G12 mutant H F77A, the % Affinity Relative to Wild Type is 0.1%.

Consider Fab 2G12 mutant H G96A, for which the % Affinity Relative to Wild Type was determined as 20%.

For Fab 2G12 mutant H H32A, the % Affinity Relative to Wild Type worked out at 0.4%.

As to Fab 2G12 mutant H I19A, the % Affinity Relative to Wild Type was found to be 0.5%.

With Fab 2G12 mutant H K82bA, the % Affinity Relative to Wild Type was determined as 51%.

With Fab 2G12 mutant H K95A, the % Affinity Relative to Wild Type came to 170%.

Consider Fab 2G12 mutant H L74A, for which the % Affinity Relative to Wild Type stood at 130%.

For Fab 2G12 mutant H L100A, the % Affinity Relative to Wild Type was 0.1%.

Take Fab 2G12 mutant H N100cA: the % Affinity Relative to Wild Type was 0.1%.

In the case of Fab 2G12 mutant H P113A, the % Affinity Relative to Wild Type amounted to 0.1%.

Fab 2G12 mutant H P113S: the % Affinity Relative to Wild Type stood at 0.1%.

Turning to Fab 2G12 mutant H R39A, the % Affinity Relative to Wild Type worked out at 130%.

In the case of Fab 2G12 mutant H R39Q, the % Affinity Relative to Wild Type turned out to be 170%.

Fab 2G12 mutant H R57A: the % Affinity Relative to Wild Type was found to be 0.1%.

As to Fab 2G12 mutant H R83A, the % Affinity Relative to Wild Type turned out to be 59%.

Turning to Fab 2G12 mutant H S54A, the % Affinity Relative to Wild Type stood at 0.1%.

Regarding Fab 2G12 mutant H S100aA, the % Affinity Relative to Wild Type worked out at 0.1%.

Take Fab 2G12 mutant H T33A: the % Affinity Relative to Wild Type stood at 2%.

For Fab 2G12 mutant H T52aA, the % Affinity Relative to Wild Type is 190%.

As for Fab 2G12 mutant H T55A, the % Affinity Relative to Wild Type was found to be 0.1%.

On to Fab 2G12 mutant H V84A, for which the % Affinity Relative to Wild Type was 0.1%.

Fab 2G12 mutant H Y56A: the % Affinity Relative to Wild Type was 2%.

Fab 2G12 mutant H Y79A: the % Affinity Relative to Wild Type is 0.1%.

Regarding Fab 2G12 mutant L G93A, the % Affinity Relative to Wild Type worked out at 120%.

Consider Fab 2G12 mutant L S28A, for which the % Affinity Relative to Wild Type came to 0.1%.

With Fab 2G12 mutant L W32A, the % Affinity Relative to Wild Type is 50%.
